{"source": "patent US20210246218A1", "about": "(LYVGEN BIOPHARMA SUZHOU, published 2021)", "binders": {"B1": {"name": "Clone 3712-IgG1v (IgG1v/kappa) (antibody)", "heavy": "QVQLVQSGAEVKKPGASVKVSCKASGYTFAGFEMHWVRQAPGQGLEWMGAIDPKTGGTDYNQKFKDRVTMTRDTSISTAYMELSRLRSDDTAVYYCARDLGYFDVWGQGTLVTVSSASTKGPSVFPLAPSSKSTSGGTAALGCLVKDYFPEPVTVSWNSGALTSGVHTFPAVLQSSGLYSLSSVVTVPSSSLGTQTYICNVNHKPSNTKVDKKVEPKSCDKTHTCPPCPAPELLGPSVFLFPPKPKDTLMISRTPEVTCVVVDVEHEDPEVKFNWYVDGVEVHNAKTKPREEQYNSTYRVVSVLTVLHQDWLNGKEYKCKVSNKALPAPIEKTISKAKGQPREPQVYTLPPSREEMTKNQVSLTCLVKGFYPSDIAVEWESNGQPENNYKTTPPVLDSDGSFFLYSKLTVDKSRWQQGNVFSCSVMHEALHNHYTQKSLSLSPGK", "light": "DIQMTQSPSSLSASVGDRVTITCRASQDIRSNLNWYQQKPGGAVKLLIYYTSRLHSGVPSRFSGSGSGTDYTLTISSLQPEDFATYFCQQSEKLPRTFGGGTKVEIRRTVAAPSVFIFPPSDEQLKSGTASVVCLLNNFYPREAKVQWKVDNALQSGNSQESVTEQDSKDSTYSLSSTLTLSKADYEKHKVYACEVTHQGLSSPVTKSFNRGEC", "notes": "copies: 2 + 2"}}, "key": {"Ly110": {"molecular_target": "T1, Ly110", "T1 chain": "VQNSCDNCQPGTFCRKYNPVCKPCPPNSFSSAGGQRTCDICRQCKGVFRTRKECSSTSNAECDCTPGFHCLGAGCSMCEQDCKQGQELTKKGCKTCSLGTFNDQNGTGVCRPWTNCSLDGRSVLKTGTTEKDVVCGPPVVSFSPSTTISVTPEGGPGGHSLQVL", "test": "ELISA, CD137 protein coated, clone 3712 titrated; sigmoid with a low plateau of about 0.45 (huCD137 about 1.5)", "protocol": "For the data shown in FIGS. 16C-D, chimeric CD137 receptor protein samples were diluted in DPBS to 5 μg/mL and then coated onto an ELISA plate (Corning, Catalog number: 9018, high binding) at 50 μL (0.25 μg) per well, and incubated at 4° C. overnight. The plate was decanted and washed once; assay diluent was added at 200 μL/well. After a 1-hour incubation at room temperature, the plate was washed with PBST one time. […] The plate was incubated 1 hour at room temperature and then washed three times with PBST. Goat anti-human IgG-H+L HRP-conjugated at 1:100,000 dilution or goat anti-mouse IgG (H+L) secondary antibody, HRP, 10 at 1:50,000 dilution was added to the plate at 100 μL/well. The plate was incubated 1 hour at room temperature followed by washing with PBST four times. The TMB substrate solution was added 100 μL/well. The color was permitted to develop for 15 minutes and then 100 μL/well 2N H2SO4 was added to terminate the reaction. Absorbance at 450 nm and 620 nm was determined by a Tecan F200 Pro reader."}, "human LAG-3 protein": {"molecular_target": "T2, human LAG-3 protein (human, UniProt P18627 23-450)", "T2 sequence (looked up)": "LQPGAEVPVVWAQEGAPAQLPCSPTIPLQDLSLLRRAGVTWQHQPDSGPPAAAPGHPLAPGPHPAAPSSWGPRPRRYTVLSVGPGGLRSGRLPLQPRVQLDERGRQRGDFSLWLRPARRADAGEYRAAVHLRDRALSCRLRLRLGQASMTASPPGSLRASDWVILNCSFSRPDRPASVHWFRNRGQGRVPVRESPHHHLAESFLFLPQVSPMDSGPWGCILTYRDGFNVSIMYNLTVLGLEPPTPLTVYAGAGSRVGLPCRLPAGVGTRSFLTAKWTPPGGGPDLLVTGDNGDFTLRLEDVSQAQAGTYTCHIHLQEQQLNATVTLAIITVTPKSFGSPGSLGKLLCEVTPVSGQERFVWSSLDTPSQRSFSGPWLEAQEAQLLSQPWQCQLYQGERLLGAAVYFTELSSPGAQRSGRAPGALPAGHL", "test": "ELISA, protein coated at 1 µg/mL", "protocol": "(§1) The plate was decanted and washed once; assay diluent was added at 200 μL/well. After a 1-hour incubation at room temperature, the plate was washed with PBST one time. […] These samples were added into the plate 50 μL/well. The plate was incubated 1 hour at room temperature and then washed three times with PBST. Goat anti-human IgG-H+L HRP-conjugated at 1:100,000 dilution or goat anti-mouse IgG (H+L) secondary antibody, HRP, at 1:50,000 dilution was added to the plate at 100 μL/well. The plate was incubated 1 hour at room temperature followed by washing with PBST four times. The TMB substrate solution was added 100 μL/well. The color was permitted to develop for 15 minutes and then 100 μL/well 2N H₂SO₄ was added to terminate the reaction. Absorbance at 450 nm and 620 nm was determined by a Tecan F200 Pro reader."}, "human B7-H3 protein": {"molecular_target": "T3, human B7-H3 protein (human, UniProt Q5ZPR3 29-461, limits assumed)", "T3 sequence (looked up)": "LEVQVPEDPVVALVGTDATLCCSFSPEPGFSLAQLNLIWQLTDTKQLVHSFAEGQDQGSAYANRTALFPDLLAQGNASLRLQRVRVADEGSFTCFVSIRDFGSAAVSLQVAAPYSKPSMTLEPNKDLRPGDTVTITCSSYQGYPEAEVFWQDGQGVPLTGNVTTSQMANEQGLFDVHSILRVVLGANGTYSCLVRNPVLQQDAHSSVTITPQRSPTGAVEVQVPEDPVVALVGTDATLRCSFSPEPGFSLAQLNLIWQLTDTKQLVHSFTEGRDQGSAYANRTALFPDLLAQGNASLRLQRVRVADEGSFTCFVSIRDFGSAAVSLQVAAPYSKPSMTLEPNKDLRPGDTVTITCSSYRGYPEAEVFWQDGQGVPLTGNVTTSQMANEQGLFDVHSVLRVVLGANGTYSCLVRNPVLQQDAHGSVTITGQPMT", "test": "ELISA, protein coated at 1 µg/mL", "protocol": "as §1"}, "human TIGIT protein": {"molecular_target": "T4, human TIGIT protein (human, UniProt Q495A1 22-141)", "T4 sequence (looked up)": "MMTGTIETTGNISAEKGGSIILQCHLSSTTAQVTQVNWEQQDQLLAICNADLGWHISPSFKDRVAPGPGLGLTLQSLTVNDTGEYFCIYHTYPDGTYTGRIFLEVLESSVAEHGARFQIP", "test": "ELISA, protein coated at 1 µg/mL", "protocol": "as §1"}, "rat CD137 protein": {"molecular_target": "T5, rat CD137 protein (rat, UniProt Q4W8J3 24-189)", "T5 construct": "Coated on ELISA plates; also called Rodent CD137", "T5 sequence": "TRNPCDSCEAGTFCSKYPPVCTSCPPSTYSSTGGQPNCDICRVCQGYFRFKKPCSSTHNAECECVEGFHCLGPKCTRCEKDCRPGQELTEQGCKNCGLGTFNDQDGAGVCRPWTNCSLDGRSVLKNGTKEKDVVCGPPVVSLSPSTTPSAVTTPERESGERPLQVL", "test": "ELISA, protein coated at 1 µg/mL", "protocol": "as §1"}, "human LTBR protein": {"molecular_target": "T6, human LTBR protein (human, UniProt P36941 31-227)", "T6 construct": "also called LT β R; LTβR", "T6 sequence (P36941 31-227 limits assumed)": "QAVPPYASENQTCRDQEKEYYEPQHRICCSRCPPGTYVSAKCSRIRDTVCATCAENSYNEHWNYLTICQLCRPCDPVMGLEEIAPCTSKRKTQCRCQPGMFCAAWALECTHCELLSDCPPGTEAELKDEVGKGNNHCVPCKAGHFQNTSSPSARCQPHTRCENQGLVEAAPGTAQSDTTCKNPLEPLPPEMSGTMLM", "test": "ELISA, protein coated at 1 µg/mL", "protocol": "as §1"}, "mouse CD137 protein": {"molecular_target": "T7, mouse CD137 protein (mouse, UniProt P20334 24-187)", "T7 construct": "Coated on ELISA plates; also called Rodent CD137; murine CD137", "T7 sequence (looked up)": "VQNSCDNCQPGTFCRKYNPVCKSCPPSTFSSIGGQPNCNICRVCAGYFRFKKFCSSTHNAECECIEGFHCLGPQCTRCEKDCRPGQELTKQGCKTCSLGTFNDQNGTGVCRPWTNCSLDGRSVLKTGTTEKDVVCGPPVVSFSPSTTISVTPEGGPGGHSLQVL", "test": "ELISA, protein coated at 1 µg/mL", "protocol": "as §1"}, "human PD-L1 protein": {"molecular_target": "human PD-L1 protein (human, UniProt Q9NZQ7 19-238)", "sequence (Q9NZQ7 19-238 limits assumed)": "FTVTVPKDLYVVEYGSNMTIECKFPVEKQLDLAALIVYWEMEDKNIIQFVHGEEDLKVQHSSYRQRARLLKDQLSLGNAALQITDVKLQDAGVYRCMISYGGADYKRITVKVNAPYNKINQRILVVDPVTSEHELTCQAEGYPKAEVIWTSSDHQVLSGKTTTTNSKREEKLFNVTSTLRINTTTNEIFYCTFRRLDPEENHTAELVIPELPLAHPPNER", "test": "ELISA, protein coated at 1 µg/mL", "protocol": "as §1"}, "human PD-1 protein": {"molecular_target": "human PD-1 protein (human, UniProt Q15116 25-167)", "sequence (Q15116 25-167 limits assumed)": "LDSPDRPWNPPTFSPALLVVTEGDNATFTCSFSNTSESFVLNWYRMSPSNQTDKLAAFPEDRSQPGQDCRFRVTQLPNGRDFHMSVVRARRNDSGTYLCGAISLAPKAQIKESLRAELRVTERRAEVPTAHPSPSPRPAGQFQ", "test": "ELISA, protein coated at 1 µg/mL", "protocol": "as §1"}, "human VISTA protein": {"molecular_target": "human VISTA protein (human, UniProt Q9H7M9 33-194)", "test": "ELISA, protein coated at 1 µg/mL", "protocol": "as §1"}}}
{"binder": "B1", "values": [{"measurement": "EC50", "setting": "Ly110", "value": 0.0578, "unit": "µg/mL"}, {"measurement": "binding result", "setting": "human LAG-3 protein", "value": "no binding (tested: 10 µg/mL and 1 µg/mL)"}, {"measurement": "binding result", "setting": "human B7-H3 protein", "value": "no binding (tested: 10 µg/mL and 1 µg/mL)"}, {"measurement": "binding result", "setting": "human TIGIT protein", "value": "no binding (tested: 10 µg/mL and 1 µg/mL)"}, {"measurement": "binding result", "setting": "rat CD137 protein", "value": "no binding (tested: 10 µg/mL and 1 µg/mL)"}, {"measurement": "binding result", "setting": "human LTBR protein", "value": "no binding (tested: 10 µg/mL and 1 µg/mL)"}, {"measurement": "binding result", "setting": "mouse CD137 protein", "value": "no binding (tested: 10 µg/mL and 1 µg/mL)"}, {"measurement": "binding result", "setting": "human PD-L1 protein", "value": "no binding (tested: 10 µg/mL and 1 µg/mL)"}, {"measurement": "binding result", "setting": "human PD-1 protein", "value": "no binding (tested: 10 µg/mL and 1 µg/mL)"}, {"measurement": "binding result", "setting": "human VISTA protein", "value": "no binding (tested: 10 µg/mL and 1 µg/mL)"}]}
